Data published in patent US20180086829A1 (published 2018).
Positions count from the first letter of the chain named. Where two headings read alike, the source gives them in different places.

B1: anti-LILRB4 rabbit monoclonal antibody #161-2 (antibody, V domains shown)
VH: QSVKESGGRLVTPGTPLTLTCTVSGIDLSVYLMSWVRHSPGKGLEYIGFINSAGITAYATWAKGRFIISKTSTTVDLKVTSPTTEDTATYFCARNWIRLDLWGQGTLVTISS
VL: TQTPASVSAAVGGTVTISCQSSETIYKNYLSWFQQKPGQPPKLLIYESSKLASGVPSRFSGSGSGTQFTLTISDVQCDDAATYYCLGGYTDGRDTIFGGGTEVEIK
B2: anti-LILRB4 rabbit monoclonal antibody #161-1 (antibody, V domains shown)
VH: B1 VH
VL: ELDLTQTPASVSAAVGGTVTISCQSSETIYKNYLSWFQQKPGQPPKLLIYESSKLASGVPSRFSGSGSGTQFTLTISDVQCDDAATYYCLGGYTDGRDTIFGGGTELEIK
B3: anti-LILRB4 rabbit monoclonal antibody #78 (antibody, V domains shown)
VH: B1 VH with V3L, K4Q, H38Q
VL: B2 VL with D3V, T28S, S52T, D95N
B4: anti-LILRB4 rabbit monoclonal antibody #192 (antibody, V domains shown)
VH: EQSLEESGGGLVTPGGTLTLTCTVSGFSLSNNAMSWVRQAPGKGLEWIGVILLAGPTYYASWAKGRFTISKTSTTVDLKITSPTTEDTATYFCAIAIGSRPFALWGQGTLVTISS
VL: ELVLTQTPSSTSAAVGGTVTINCQSSQSVYSNWLSWFQQKPGQPPKPLIYLASTLASGVPSRFSGSGSGTQFTLTISDVQCDDAATYYCQGGYNGNIYTFGGGTEVVVK
B5: anti-LILRB4 rabbit monoclonal antibody #120 (antibody, V domains shown)
VH: QSLEESGGRLVTPGTPLTLTCTVSGIDLNKYAMTWVRQAPGKGLEYIGFINIVGIAGYATWAKGRFTISKTSTTVDLKVTSPTTEDTATYFCARNWIRLDLWGQGTLVTVSS
VL: ELDLTQTPASVSAAVGGTVTISCQSSESLYKKNYLSWFQQKPGQPPKLLIFEASKLASGVPSRFSGSGSGTQFTLTISDVQCDDAASYYCLGDYTNGRDTTFGGGTEVVVK
B6: anti-LILRB4 rabbit monoclonal antibody #208 (antibody, V domains shown)
VH: B4 VH with L4V, A54S, P56T
VL: B4 VL with L4M

What was measured:
Assay in all cases: ELISA
human LILRB4 [1] = biological target: T1, human LILRB4 (UniProt Q8NHJ6 22-259)
human LILRB4 [2] = biological target: T1, human LILRB4; remark: listed apart in the source
human LILRB4 [3] = biological target: T1, human LILRB4; remark: listed apart in the source

T1 sequence (Q8NHJ6 22-259): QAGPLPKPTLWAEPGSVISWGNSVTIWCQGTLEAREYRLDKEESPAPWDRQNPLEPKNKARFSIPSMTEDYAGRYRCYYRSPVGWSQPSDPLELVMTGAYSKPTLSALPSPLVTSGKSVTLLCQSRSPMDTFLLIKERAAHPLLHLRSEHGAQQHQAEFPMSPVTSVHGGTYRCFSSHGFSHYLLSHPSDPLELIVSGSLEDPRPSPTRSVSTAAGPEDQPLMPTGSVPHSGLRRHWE

Binder	EC50 (human LILRB4 [1])	EC50 (human LILRB4 [2])	EC50 (human LILRB4 [3])
B1	0.0126 µg/mL		
B2		0.0104 µg/mL	
B3			0.0121 µg/mL
B4		0.021 µg/mL	
B5			0.0119 µg/mL
B6	0.0198 µg/mL		
